# According to US7455837B2, “Compositions and methods for the diagnosis and treatment of sepsis” (The Regents of the University of Michigan, priority 2002, dated 2008):
# T1: mouse C5a receptor (mouse, UniProt P30993 1-351)
# T1 construct: whole, on cells
# T1 sequence (looked up): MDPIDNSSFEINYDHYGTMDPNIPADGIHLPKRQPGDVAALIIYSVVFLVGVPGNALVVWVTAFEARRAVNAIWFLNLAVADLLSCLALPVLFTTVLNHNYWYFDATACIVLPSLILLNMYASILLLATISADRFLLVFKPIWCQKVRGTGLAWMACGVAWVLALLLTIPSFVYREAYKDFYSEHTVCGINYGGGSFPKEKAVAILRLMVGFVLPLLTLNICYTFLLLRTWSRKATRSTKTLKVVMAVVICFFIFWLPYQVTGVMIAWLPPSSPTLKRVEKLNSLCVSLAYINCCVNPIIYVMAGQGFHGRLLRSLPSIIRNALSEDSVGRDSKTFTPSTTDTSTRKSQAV
# T2: C5aR on mouse peritoneal neutrophils (Mus musculus, UniProt P30993)
# T2 construct: Mice were injected i.p. with 2.5 mL sterile 3% thioglycolate medium (DIFCO Laboratories, Detroit, Mich.) for harvesting of mouse neutrophils; endogenous in cells; host or cells: mouse peritoneal neutrophils (thioglycolate-elicited, whole cells)
# T2 sequence (P30993 1-351): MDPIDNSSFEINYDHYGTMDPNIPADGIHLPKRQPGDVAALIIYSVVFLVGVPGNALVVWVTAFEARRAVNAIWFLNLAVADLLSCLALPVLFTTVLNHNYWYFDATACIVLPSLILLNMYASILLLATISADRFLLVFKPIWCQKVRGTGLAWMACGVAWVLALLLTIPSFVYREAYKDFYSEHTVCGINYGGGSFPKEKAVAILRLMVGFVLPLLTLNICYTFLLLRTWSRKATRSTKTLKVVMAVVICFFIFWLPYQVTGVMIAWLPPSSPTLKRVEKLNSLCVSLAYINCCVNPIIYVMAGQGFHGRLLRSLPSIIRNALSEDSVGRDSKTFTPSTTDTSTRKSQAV
# B1: recombinant mouse C5a (ligand, UniProt P06684 679-755, looked up)
# chain: NLHLLRQKIEEQAAKYKHSVPKKCCYDGARVNFYETCEERVARVTIGPLCIRAFNECCTIANKIRKESPHKPVQLGR
# modifications: 125I label (chloramine T) on the tracer form only; the competitor was unlabeled
# notes: domain: C5a; Expressed in E. coli BL21(DE3) pLysS from pET 15b (NdeI/BamHI) and purified over a Ni2+ column; C5a is only a fragment of it; also called mC5a; recombinant mouse (m) C5a
# B2: mC5a: recombinant mouse C5a expressed in BL21 (DE3) pLysS cells, purified over a Ni2+ column (protein)
# chain: NLHLLRQKIEEQAAKYKHSVPKKCCYDGARVNFYETCEERVARVTIGPLCIRAFNECCTIANKIRKESPHKPVQLGR
# Assays:
# mouse neutrophils [1] = assay: Chemotaxis assay of mouse neutrophils to mC5a; type: cell-based
# Method: Five hours later, mice were killed and the peritoneal cavity was lavaged four times with 10 mL DPBS. Fluids were centrifuged and residual red blood cells removed by a hypotonic lysis step. Remaining peritoneal cells were washed and resuspended in HBSS.
# After neutrophil isolation, cells were fluorescein-labeled with BCECF (2′,7′-bis [2-carboxyethyl]-5-[and 6]-carboxy-fluorescein acetoxymethyl ester) (Molecular Probes, Eugene, Oreg.). Labeled neutrophils (5×10^6 cells/mL) were then loaded into the upper chambers of 96-well minichambers (NeuroProbe, Cabin John, Md.). […] The upper and lower chambers were separated by a polycarbonate membrane of 3 μm porosity. Minichambers were incubated for 60 min at 37° C. The number of cells migrating through polycarbonate filters to the lower surface was measured by cytofluorometry (Cytofluor II, PerSeptive Biosystems, Framingham, Mass.). For each measurement, quadruplicate samples were used.
# mouse C5a receptor = target: T1, mouse C5a receptor; assay: competition of unlabeled mC5a with 100 pM 125I-mC5a on mouse peritoneal neutrophils, 20 min at 4 C
# Method: Isolated neutrophils were incubated for 1 h at 4° C. in binding buffer (HBSS without Ca^2+ and containing 1% BSA) to block nonspecific surface binding sites. […] After an incubation interval of 20 min at 4° C., cell suspensions were layered over 20% sucrose and sedimented by centrifugation at 11,000 g (Beckman Microfuge B, Palo Alto, Calif.) for 2 min. […] Binding affinities (K_d values) of C5a were calculated in the conventional manner (Chenoweth et al., (1978) *Proc. Natl. Acad. Sci. USA* 75,3943-3947). […]
# Recent reports have described CSaRa binding affinities to rat and human neutrophils (Wong et al., (1998) *J. Med. Chem.* 41,3417-3425; Short et al., (1999) *Br. J. Pharmacol.* 128,511-514). To assess whether C5aRa also binds to mouse neutrophils, competitive binding studies using C5aRa and mC5a were undertaken.
# [2] = target: T2, C5aR on mouse peritoneal neutrophils; assay: Competitive binding of 125I-mC5a to mouse peritoneal neutrophils; settings: recombinant protein
# Method: (§1) Mice were injected i.p. with 2.5 mL sterile 3% thioglycolate medium (DIFCO Laboratories, Detroit, Mich.) for harvesting of mouse neutrophils (Ajuebor et al., (1999) J. Immunol. 162,1685-1691). Five hours later, mice were killed and the peritoneal cavity was lavaged four times with 10 mL DPBS. Fluids were centrifuged and residual red blood cells removed by a hypotonic lysis step. Remaining peritoneal cells were washed and resuspended in HBSS. Aliquots of cells were stained with Diff-Quik Stain (Dade International, Miami, Fla.) and examined for neutrophil purity (>95%) and viability (>97%) by trypan blue exclusion (Fildes et al., (1998) J. Trauma 45,479-484).
# For binding studies, mC5a was labeled with […], using the chloramine T-based protocol (Bennett et al., (1997) Methods Enzymol. 288,134-148) with gentle oxidation, which preserves chemotactic activity of mC5a for mouse neutrophils. Isolated neutrophils were incubated for 1 h at 4° C. in binding buffer (HBSS without Ca^2+ and containing 1% BSA) to block nonspecific surface binding sites. […] Binding affinities (Kd values) of C5a were calculated in the conventional manner (Chenoweth et al., (1978) Proc. Natl. Acad. Sci. USA 75,3943-3947). […]
# mouse neutrophils [3] = assay: Neutrophil oxidative burst (H2O2 generation, PMA-stimulated); type: cell-based
# Method: as §1
# H2O2 generation was determined in the presence of 1 mM sodium azide. As indicated, mouse neutrophils (2×10^6 cells/mL) were pretreated with mC5a (10 nM) for 60 min at 37° C. in the presence or absence of different amounts of C5aRa. To stimulate neutrophils, cells were then incubated with PMA (25 ng/mL) for an additional 10 min. The reaction was stopped by addition of 0.1 mL trichloroacetic acid (50% v/v), then ferrous ammonium sulfate (1.5 mM) and potassium thiocyanate (0.25 M) were added to supernatant fluids. The absorbance of the ferrithiocyanate complex was measured at 480 nm and compared with a standard curve generated from dilutions of reference solutions of H2O2.
molecule,measurement,setting,value
^125I-C5aRa: C5aRa labeled with 125I by the chloramine T method (FXPXWR; non-natural residues; cyclised or stapled) [reference compound],chemotactic response to mC5a in presence of radiolabeled antagonist,"mouse neutrophils [1]; 10 nM 125I-C5aRa, mC5a 1-100 nM",virtually completely suppressed
B1,Kd,mouse C5a receptor,~3 nM
B2,binding to mouse neutrophils,[2],high-affinity binding
same,basal H2O2 production vs ctrl cells,"mouse neutrophils [3]; 10 nM alone, 60 min at 37° C., no PMA",neither mC5a alone nor C5aRa alone significantly altered
same,PMA-stimulated H2O2 production after exposure to mC5a,"mouse neutrophils [3]; 10 nM mC5a 60 min, absence of C5aRa, then PMA 25 ng/mL",completely abolished
same,chemotactic response evoked by the substance alone,mouse neutrophils [1]; 10 nM,robust chemotactic response
same,biological (chemotactic) activity,mouse neutrophils [1]; recombinant protein,had biological (chemotactic) activity
